For experiment [1], the target named is HAdV-19c (virus particle) (human adenovirus 19c (HAdV-19c)). Kind of experiment: co-sedimentation; as a1 but one concentration, 20 µM HD5; HD5 bound expressed as percent of HD5 bound to HAdV-5 in parallel samples.
Experiment [2] concerns the target HAdV-25p (virus particle) (human adenovirus 25 (HAdV-25p)). Described as above.
The target of experiment [3] is HAdV-51p (virus particle) (human adenovirus 51 (HAdV-51p)). The description is as above.
In experiment [4] the target is HAdV-7p (virus particle) (human adenovirus 7 (HAdV-7p)). The description is as above.
The target of experiment [5] is Ad5.eGFP, replication-defective HAdV-5 vector (virus particle) (human adenovirus 5 (HAdV-5)) (UniProt P04133). Description: co-sedimentation; equilibrium-binding assay; HD5 serially diluted in PBS and mixed with 5 µg purified virus, 1 h on ice; virus/HD5 complex separated from unbound HD5 by ultracentrifugation on a discontinuous nycodenz gradient (50 mM NaCl, 20 mM HEPES pH 7.4, 4°C); bound HD5 quantified after SDS-PAGE (Deep Purple stain) against a standard curve; apparent affinity, no estimate of non-specific binding.

As for human alpha-defensin HD5 (peptide), the percent of the amount of HD5 bound to HAdV-5 in experiment [1] amounted to 32.5%; in experiment [2] it was 3.3%; in experiment [3] it was 24.6%; in experiment [4], 69.3%. In experiment [5], the Kd was 14.5 µM. Moreover, in experiment [5], the stoichiometry N (HD5 molecules per virus particle) is 2750.

Values taken from PMC2891831, “Insight into the Mechanisms of Adenovirus Capsid Disassembly from Studies of Defensin Neutralization” (PLoS Pathogens, 2010).
